Patent US20240207432A1 (BIOSION, published 2024)
Residue numbers refer to the chain shown, from its start.

T1: human TROP2-his protein (human, UniProt P09758 27-274)
T1 construct: Biotin-labelled in the ELISAs, unlabelled analyte in Biacore; also called biotin-labeled human TROP2-his protein; biotin human Trop2-his
T1 sequence: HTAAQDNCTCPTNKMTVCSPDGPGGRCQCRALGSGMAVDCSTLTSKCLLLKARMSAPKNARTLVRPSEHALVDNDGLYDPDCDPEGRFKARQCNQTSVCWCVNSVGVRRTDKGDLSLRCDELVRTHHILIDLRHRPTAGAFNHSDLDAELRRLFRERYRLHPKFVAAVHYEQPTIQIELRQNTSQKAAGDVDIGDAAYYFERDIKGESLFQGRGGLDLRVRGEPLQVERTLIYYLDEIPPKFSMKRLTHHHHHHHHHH

T2: cynomolgus TROP2-his protein (cynomolgus monkey, UniProt P09758 27-272 (human entry), limits assumed)
T2 construct: no cleavage site is stated; also called Cynomolgus monkey TROP2-his protein; monkey TROP2
T2 chain: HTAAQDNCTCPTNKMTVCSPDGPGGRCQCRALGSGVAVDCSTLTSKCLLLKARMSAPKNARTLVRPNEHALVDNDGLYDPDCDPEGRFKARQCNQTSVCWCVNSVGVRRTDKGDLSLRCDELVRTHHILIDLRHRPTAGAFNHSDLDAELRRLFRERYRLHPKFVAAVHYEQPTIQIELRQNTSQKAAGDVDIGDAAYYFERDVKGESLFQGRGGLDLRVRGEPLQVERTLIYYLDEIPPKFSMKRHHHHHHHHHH

B1: mouse antibody A1E4F7D4 (antibody, V domains shown)
VH: QVQLQQSGAELAKPGTSVKMSCEASGYSFTTHWIHWMKQRPGQGLEWIGTIFPSNAYAVYNQKFRDRAIMTADRSSTTAYIQLTGLTSEDSAVYYCARASYFDYWGQGTTLTVSS
VL: DILLTQSPATLSVSPGERVTFSCRASQNIGTSIHWFQQRTTGSPRLLIKYASESISGIPSRFSGSGSGTDFTLHINSVESEDIAHYYCQHSHSWPFTFGSGTKLEIQ
notes: Mouse monoclonal IgG purified from hybridoma supernatant; also called Mouse A1E4F7D4
B2: huA1E4F7D4-V16 (antibody, human IgG1, kappa, V domains shown)
VH: QVQLVQSGAEVKKPGASVKVSCKASGYSFTTHWIHWVRQAPGQGLEWIGTIFPSNAYAVYNQKFRDRATMTADTSISTAYIELSRLRSDDTAVYYCARASYFDYWGQGTTVTVSS
VL: EIVLTQSPATLSLSPGERATLSCRASQNIGTSIHWFQQKPGGAPRLLIKYASESISGIPSRFSGSGSGTDFTLTISSLEPEDFAVYYCQHSHSWPFTFGQGTKLEIKR
notes: Positions of the X residues are given in the claims; also called humanized antibody huA1E4F7D4-V16
B3: mouse antibody A1E11A12D1 (antibody, V domains shown)
VH: QVQLQQSGAELARPGASVKLSCMASGYTFTTYGISWVRQRTGQGLEWIGQIYPGSDYSYCDEDFKGKATLTADKSSSTAYMQLSSLTSEDSAVYFCARASYFDYWGQGTTLTVSS
VL: DILLTQSPAILSVSPGERVSFSCRASQTIGTAIHWYQQRANGSPRLLIKYASESISGIPSRFSGSGSGTDFALSINTVESEDFAYYYCQQSNNWPFTFGGGTKLEIR
notes: Mouse monoclonal IgG purified from hybridoma supernatant
B4: mouse antibody A1H3C5H8E12 (antibody, V domains shown)
VH: QVQLQQSGAELVRPGTSVKMSCKAAGYTFTNYWIDWVKQRPGHGLEWIGNIFPGGFYTNYNEKFKGKATLTADTSSSTAYMQLSSLTSEDSAIYYCARGGVFDYWGQGTTLTVSS
VL: B3 VL with T28S, A32S, A40T, A72T, T77S, F83I, Y85D, N93S, F96Y, R107K
notes: as for B3
B5: mouse antibody C1B3B12D2 (antibody, V domains shown)
VH: QVQLQQSGPELVRPGTSVKMSCKAAGYTFTKFWIGWVKQRPGHGLEWIGNIYPGGAYINYNENFKGKATLTADTFSSTAYMQLNSLTSADSAIYYCAREGSSGYWGQGTTLTVSS
VL: DIVMTQSPSSLTVTAGEKVTLSCKCSQSLLNSGTQENYLTWYQQKPGQPPKMLIYWASIREPGVPDRFTGSGSGTDFTLTINNVQAEDLAVYYCQHDYSYPFTFGSGTKLEIK
notes: as for B3
B6: benchmark (in house prepared sacituzumab) (antibody, human IgG1, kappa, V domains shown)
VH: SVQLQQSGSELKKPGASVKVSCKASGYTFTNYGMNWVKQAPGQGLKWMGWINTYTGEPTYTDDFKGRFAFSLDTSVSTAYLQISSLKADDTAVYFCARGGFGSSYWYFDVWGQGSLVTVSS
VL: DIQLTQSPSSLSASVGDRVSITCKASQDVSIAVAWYQQKPGKAPKLLIYSASYRYTGVPDRFSGSGSGTDFTLTISSLQPEDFAVYYCQQHYITPLTFGAGTKVEIKR
notes: also called BM; BM1

What was measured:
[1] = target: T1, human TROP2-his protein; experiment: capture ELISA, captured antibody, biotin human TROP2-his in solution, OD(450-630)
[2] = target: T1, human TROP2-his protein; experiment: competitive ELISA: mouse A1H3C5H8E12 coated at 2 ug/mL, antibody premixed with biotin human TROP2-his; blocked: binding of TROP2-his to coated A1H3C5H8E12
Protocol: (§1) The mouse anti-TROP2 antibodies were tested for epitope binding in a competitive ELISA assay. […] ELISA plates were washed once with wash buffer (PBS+0.05% v/v Tween-20, PBST) and then blocked with 200 μl blocking buffer (5% w/v non-fatty milk in PBST) for 2 hours at 37° C. While blocking, the anti-TROP2 antibodies or controls were diluted with biotin labeled human TROP2-his protein (SEQ ID NO: 67, 34 ng/mL in 2.5% wA non-fatty milk in PBST), starting at 80 nM with a 5-fold serial dilution, and incubated at room temperature for 40 minutes. After plate washing for 4 times, the antibody/TROP2-his protein mixtures were added to the antibody coated plates, 100 μl per well. After incubation at 37° C. for 40 minutes, plates were washed 4 times again using wash buffer. Then the plates were added and incubated with 100 μl Peroxidase Streptavidin (1:10000 dilution in PBST buffer. Jackson Immunoresearch, Cat #016-030-084) for 40 minutes at 37° C. Plates were washed again using wash buffer. Finally, TMB was added and the reaction was stopped using 1M H₂SO₄. The absorbance of each well was read on a microplate reader using dual wavelength mode with 450 nm for TMB and 630 nm as the reference wavelength, and the OD (450-630) values were plotted against antibody concentration. Data was analyzed using Graphpad Prism software and IC₅₀ values were reported.

[3] = target: T1, human TROP2-his protein; experiment: competitive ELISA: BM1 coated, antibody premixed with biotin human TROP2-his; blocked: binding of TROP2-his to coated BM1; partial only: OD falls from about 1.9 to a plateau of about 1.3
[4] = target: T1, human TROP2-his protein; experiment: epitope grouping ELISA, 15 ug/ml antibody premixed with biotin human TROP2-his; competitor: coated BM1
Protocol: (§2) Firstly, capture ELISA was performed to determine the concentration of biotin-labeled human Trop2 proteins appropriate for the epitope binning test. […] The plates were washed for 4 times, added with 100 μl/well of serially diluted biotin human Trop2-his proteins (SEQ ID NO: 67) in PBST with 2.5% non-fatty milk (starting from 1.3 μg/ml with a 5-fold serial dilution), and incubated for 40 min at 37° C. Then the plates were washed for 4 times and added with 100 μl/vell of HRP-streptavidin (Jackson Immuno Research, Cat #016-030-084). The plates were incubated for another 40 min at 37° C. Then the plates were washed again, and 100 μl/well TMB was added for color development at RT for 15 min followed by quenching with 50 μl 1M H₂SO₄. The OD values at 450 nm were read.
(§3) With the appropriate concentration determined above, epitope grouping ELISA was performed. […] ELISA plates were washed once with wash buffer (PBS+0.05% v/v Tween-20, PBST) and then blocked with 200 μl blocking buffer (5% w/w non-fatty milk in PBST) for 2 hours at 37° C. […] The mixtures were incubated at room temperature for 40 minutes. After plate washing for 4 times, the antibody/biotin-TROP2-his protein mixtures were added to the antibody coated plates, 100 μl per well, and incubated for another 40 min at 37° C. Then 100 μl/well of HRP-streptavidin was added and incubated for 40 min. Then OD₄₅₀ values were determined and the cross-competition capability was calculated (cross-competition capability of antibody X (%)=(OD₄₅₀ of Antibody X-[…] of Blank)/(OD₄₅₀ of no mAb-OD₄₃₀ of Blank)*100%).

[5] = target: T1, human TROP2-his protein; experiment: epitope grouping ELISA, 15 ug/ml antibody premixed with biotin human TROP2-his; competitor: coated BM2
Protocol: as §2, §3

[6] = target: T1, human TROP2-his protein; experiment: competitive ELISA: mouse A1E4F7D4 coated at 2 ug/mL, antibody premixed with biotin human TROP2-his; blocked: binding of TROP2-his to coated A1E4F7D4; no lower plateau reached at 80 nM
Protocol: as §1

[7] = target: T1, human TROP2-his protein; experiment: competitive ELISA: mouse A1E11A12D1 coated at 2 ug/mL, antibody premixed with biotin human TROP2-his; blocked: binding of TROP2-his to coated A1E11A12D1; no lower plateau reached at 80 nM
Protocol: as §1

[8] = target: T1, human TROP2-his protein; experiment: SPR Biacore T200, benchmark captured on Protein G chip, TROP2-his analyte
Protocol: (§4) Un-reacted moieties on the chip (biosensor) surface were blocked with ethanolamine. […] The antigen-antibody association kinetics was followed for 2 minutes and the dissociation kinetics was followed for 10 minutes. The association and dissociation curves were fit to a 1:1 Langmuir binding model using BIAcore evaluation software.

[9] = target: T2, cynomolgus TROP2-his protein; experiment: as above
Protocol: as §4

Binder	EC50 [1] [pM]	IC50 [2] [pM]	IC50 [3] [pM]	OD450 [4] [OD450]	OD450 [5] [OD450]	other results
B1	261	621	702			
B2			353	1.42	1.92	
B3		933				
B4						IC50 [6]: 4090 pM; IC50 [7]: 9920 pM
B5	117					
B6				0.048	0.031	Kd [8]: 868 pM; Kd [9]: 557 pM
